B1: CPEB3 Ribozyme (parent)
chain: GGGGGCCACAGCAGAAGCGUUCACGUCGCGGCCCCUGUCAGAUUCUGGUGAAUCUGCGAAUUCUGCUGU

The variants in this data set derive from B1. As to the kind of experiment: self-cleavage, relative activity (ratio to wild type); higher = more cleavage; co-transcriptional.
For GGUGGCCACAGCAGAAGCGUUCACGUCGCGGCCCCUGUCAGAUUCUGGUGAAUCUGCGAAUUCUGCCGU, the self-cleavage was 0.317.
Turning to GGUGGCCACAGCAGAAGCGUUCACGUCGCGGCCCCUGUCAGAUUCUGGUGAAUCUGCGAAUUCUGCGGU, the self-cleavage amounted to 0.312.
Turning to GGGAGCCACAGCGGAAGCGUUCACGUCGCGGCCCCUGUCAGAUUCUGGUGAAUCUGCGAAUUCUGCUGU, the self-cleavage came out at 0.88.
On to GGUGGCCACAGCAGAAGCGUUCACGUCGCGGCCCCUGUCAGAUUCUGGUGAAUCUGCGAAUUAUGCUGU, for which the self-cleavage amounted to 0.0888.
In the case of GGUGGCCACAGCAGAAGCGUUCACGUCGCGGCCCCUGUCAGAUUCUGGUGAAUCUGCGAAUUGUGCUGU, the self-cleavage was 0.1.
For GGUGGCCACAGCAGAAGCGUUCACGUCGCGGCCCCUGUCAGAUUCUGGUGAAUCUGCGAAUUCUGCUUU the value was 0.546.
The figure for GGUGGCCACAGCAGAAGCGUUCACGUCGCGGCCCCUGUCAGAUUCUGGUGAAUCUGCGAAUUCUGCUCU is 0.548; for GGUGGCCACAGCAGAAGCGUUCACGUCGCGGCCCCUGUCAGAUUCUGGUGAAUCUGCGAAUCCUGCUGU it is 0.0865.
For GGGAGCCACAGCAGAAGCGUUCACGUCGCGGCCCCUGUCAGAUUCUGGUGAAUCUGCGAAUUAUGCUGU the value was 0.483.
GGUGGCCACAGCAGAAGCGUUCACGUCACGGCCCCUGUCAGAUUCUGGUGAAUCUGCGAAUUCUGCUGU: the self-cleavage is 0.0444.
For the variant GGGAGCCACAGCAGAAGCGUUCACGUCGCGGGCCCUGUCAGAUUCUGGUGAAUCUGCGAAUUCUGCUGU, the self-cleavage amounted to 0.171.
For GGGAGCCACAGCAGAAGCGUUCACGUCGCGGUCCCUGUCAGAUUCUGGUGAAUCUGCGAAUUCUGCUGU the value was 0.495.
With GGUGGCCACAGCAGAAGCGUUCACGUCGCGGCCCCUGUCAGAUUAUGGUGAAUCUGCGAAUUCUGCUGU, the self-cleavage stood at 0.105.
The figure for GGUGGCCACAGCAGAAGCGUUCACGUCGCGGCCCCUGUCAGAUUGUGGUGAAUCUGCGAAUUCUGCUGU is 0.112.
The figure for GGGAGCCACAGCAGAAGCGUUCACGUCGCGGCCCCUGUCAGAUUCUGGUGAAUAUGCGAAUUCUGCUGU is 0.457.
For GGGAGCCACAGCAGAAGCGUUCACGUCGCGGCCCCUGUCAGAUUCUGGUGAAUUUGCGAAUUCUGCUGU the value was 0.776; for GGGAGCCACAGCAGAAGCGUUCCCGUCGCGGCCCCUGUCAGAUUCUGGUGAAUCUGCGAAUUCUGCUGU, 0.573; for GGUGGCCACAGCAGAAGCGUUCACUUCGCGGCCCCUGUCAGAUUCUGGUGAAUCUGCGAAUUCUGCUGU, 0.0356.
For the variant GGUGGCCACAGCAGAAGCGUUCACAUCGCGGCCCCUGUCAGAUUCUGGUGAAUCUGCGAAUUCUGCUGU, the self-cleavage turned out to be 0.046.
Take GGUGGCCACAGCAGAAACGUUCACGUCGCGGCCCCUGUCAGAUUCUGGUGAAUCUGCGAAUUCUGCUGU: the self-cleavage is 0.0459.
Take GGUGGCCACAGCAGAAGCGUUCACGUCGCGGCCCCUGUCAGAUUCUGGGGAAUCUGCGAAUUCUGCUGU: the self-cleavage came out at 0.0811.
Take GGUGGCCACAGCAGAAGCGUUCACGUCGCGGCCCCUGUCAGAUUCAGGUGAAUCUGCGAAUUCUGCUGU: the self-cleavage is 0.162.
Consider GGUGGCCACAGCAGAAGCCUUCACGUCGCGGCCCCUGUCAGAUUCUGGUGAAUCUGCGAAUUCUGCUGU, for which the self-cleavage came to 0.0665.
Regarding GGUGGCCACAGCAGAAGCGUUCACGUCGCGGCCCCUGUCAGAUUCUGGUGAAUCUACGAAUUCUGCUGU, the self-cleavage turned out to be 0.035.
For GGUGGCCACAGCAAAAGCGUUCACGUCGCGGCCCCUGUCAGAUUCUGGUGAAUCUGCGAAUUCUGCUGU the value was 0.0323; for GGGAGCCACAGCAGAAGCGUUCACGUCGCGGCCCCUGUCAGAUUCUGGUGCAUCUGCGAAUUCUGCUGU, 0.702; for GGGAGCCACAGCAGAAGCGUUCACGUCGCGGCCCCUGUCAGAUUCUGGUGGAUCUGCGAAUUCUGCUGU, 0.787.
Regarding GGGAGCCACAGCAGAAGCGUUCACGUCGCGGCCCCUGUCAGAUUCUGGUGAAUCUGCGAAUUCUGCUGU, the self-cleavage came to 0.898.
For the variant GGGAGCCACAGCAGACGCGUUCACGUCGCGGCCCCUGUCAGAUUCUGGUGAAUCUGCGAAUUCUGCUGU, the self-cleavage was determined as 0.0992.
The figure for GGUGGCCACAGCAGAAGCGUUCACGUCGCGGCCCCUGUCAGAUUCUAGUGAAUCUGCGAAUUCUGCUGU is 0.192; for GGUGGCCACAGCAGAAGCGUUCACGUCGCGCCCCCUGUCAGAUUCUGGUGAAUCUGCGAAUUCUGCUGU it is 0.0621.
The figure for GGGAGUCACAGCAGAAGCGUUCACGUCGCGGCCCCUGUCAGAUUCUGGUGAAUCUGCGAAUUCUGCUGU is 0.426.
For the variant GGGAGGCACAGCAGAAGCGUUCACGUCGCGGCCCCUGUCAGAUUCUGGUGAAUCUGCGAAUUCUGCUGU, the self-cleavage came to 0.07.
Take GGGAGCCACAGCAGAAGCGUUCACGUCGCGGCCCCUGUCGGAUUCUGGUGAAUCUGCGAAUUCUGCUGU: the self-cleavage came to 0.773.
The figure for GGGAGCCACAGCAGAAGCGUUCACGUCGCGGCCCCUGUCUGAUUCUGGUGAAUCUGCGAAUUCUGCUGU is 0.48.
For the variant GGUGGCCACAGCAGAAGCGUUCACGUCGCGGCCCCUGUCAGAGUCUGGUGAAUCUGCGAAUUCUGCUGU, the self-cleavage worked out at 0.0687.
For GGUGGCCACAGCAGAAGCGUUCACGUCGCGGCCCUUGUCAGAUUCUGGUGAAUCUGCGAAUUCUGCUGU, the self-cleavage was 0.0525.
For GGUGGCCACAGCAGAAGCGUUCACGUCGCGGCCCCUGACAGAUUCUGGUGAAUCUGCGAAUUCUGCUGU the value was 0.22; for GGGAGCCACUGCAGAAGCGUUCACGUCGCGGCCCCUGUCAGAUUCUGGUGAAUCUGCGAAUUCUGCUGU, 0.941; for GGUGGCCACAGCAGAAGCGUUCACGUCGCGGCCGCUGUCAGAUUCUGGUGAAUCUGCGAAUUCUGCUGU, 0.643.
Turning to GGGAGCCACAGCAGAAGCGUUCACGUCGCGGCCCCUGUCAGAUUGUGGUGAAUCUGCGAAUUCUGCUGU, the self-cleavage worked out at 0.691.
With GGUUGCCACAGCAGAAGCGUUCACGUCGCGGCCCCUGUCAGAUUCUGGUGAAUCUGCGAAUUCUGCUGU, the self-cleavage was found to be 0.0247.
Turning to GGGAGCGACAGCAGAAGCGUUCACGUCGCGGCCCCUGUCAGAUUCUGGUGAAUCUGCGAAUUCUGCUGU, the self-cleavage stood at 0.0338.
Consider GGUGGCCACAGCAGAAGCGUUCACGUCGCGGCCCCUGUCAGAUUCUGGUGAAUCUGCGAAUUCUUCUGU, for which the self-cleavage was 0.101.
The figure for GGUGGCCACAGCAGAAGCGUUCACGACGCGGCCCCUGUCAGAUUCUGGUGAAUCUGCGAAUUCUGCUGU is 0.0295; for GGUGGCCACAGCAGAAGCGUUCACGUCGCGGCCCCUGUCAGAUUCUGGUGAAGCUGCGAAUUCUGCUGU it is 0.0759.
On to GGGAGCCACAGCAGAAGCGUUCACGUCGCGGCCCCUGUCAGUUUCUGGUGAAUCUGCGAAUUCUGCUGU, for which the self-cleavage turned out to be 0.721.
As to GGUGGCCACAGCAGAAGCGUUCACGUCGCGGACCCUGUCAGAUUCUGGUGAAUCUGCGAAUUCUGCUGU, the self-cleavage was found to be 0.0393.
For GGUGGCCACAGCAGAAGCGUUCACGUCGCGGGCCCUGUCAGAUUCUGGUGAAUCUGCGAAUUCUGCUGU the value was 0.054.
Turning to GGGAGCCACAGCAGAAGCGUUCACGUCGCGGCCCUUGUCAGAUUCUGGUGAAUCUGCGAAUUCUGCUGU, the self-cleavage is 0.244.
For GGGAGCCACAGUAGAAGCGUUCACGUCGCGGCCCCUGUCAGAUUCUGGUGAAUCUGCGAAUUCUGCUGU the value was 0.876; for GGGAGCCACAGCAGAAGCGUUAACGUCGCGGCCCCUGUCAGAUUCUGGUGAAUCUGCGAAUUCUGCUGU, 0.087; for GGUGGCCACAGCAGAAGCGUUCACGUCGCGGCGCCUGUCAGAUUCUGGUGAAUCUGCGAAUUCUGCUGU, 0.0603.
Regarding GGUGGCCACAGCAGAAGCGGUCACGUCGCGGCCCCUGUCAGAUUCUGGUGAAUCUGCGAAUUCUGCUGU, the self-cleavage stood at 0.0082.
For GGUGGCCACAGCAGAAGCGCUCACGUCGCGGCCCCUGUCAGAUUCUGGUGAAUCUGCGAAUUCUGCUGU the value was 0.0468; for GGUGGCCACAACAGAAGCGUUCACGUCGCGGCCCCUGUCAGAUUCUGGUGAAUCUGCGAAUUCUGCUGU, 0.125; for GGUGGCCACAUCAGAAGCGUUCACGUCGCGGCCCCUGUCAGAUUCUGGUGAAUCUGCGAAUUCUGCUGU, 0.0744.
Regarding GGGAGCCACAGCAGAAGCGUUCACGUCGCGGCCCCUGUGAGAUUCUGGUGAAUCUGCGAAUUCUGCUGU, the self-cleavage stood at 0.717.
The figure for GGGAGCCACAGCAGAAGCGUUCACGUGGCGGCCCCUGUCAGAUUCUGGUGAAUCUGCGAAUUCUGCUGU is 0.119.
GGUGUCCACAGCAGAAGCGUUCACGUCGCGGCCCCUGUCAGAUUCUGGUGAAUCUGCGAAUUCUGCUGU: the self-cleavage is 0.0488.
The figure for GGUGGCCACAGCAGAAGCGUUCACGUCGCGGCCCCAGUCAGAUUCUGGUGAAUCUGCGAAUUCUGCUGU is 0.0376; for GGGAGCCACAGCAGAAGCGUUCACGUCGAGGCCCCUGUCAGAUUCUGGUGAAUCUGCGAAUUCUGCUGU it is 0.226; for GGUGGCCACAGCAGAAGCGUUCACGUCGCGGCCCCUGUCAGAUUCUGGUGAAUCUGCUAAUUCUGCUGU it is 0.189.
As to GGGAGCCACAGCAGAAGCGUUCACGUCGCGGCCGCUGUCAGAUUCUGGUGAAUCUGCGAAUUCUGCUGU, the self-cleavage turned out to be 0.16.
As to GGUGGCCACAGCAGAAGCGUUCACGUCGCGGCCCCUGUCAGAUUCUGGUGAAUCUGGGAAUUCUGCUGU, the self-cleavage turned out to be 0.0443.
The figure for GGUGGCCACAGCAGAAGCGUUCACGUCGCGGCCCCUGUCAGAUUCUGGUUAAUCUGCGAAUUCUGCUGU is 0.171; for GGUGGCCACAGCAGAAGCGUUCACGUCGCGGCCCCUGUCAGAUUCUGGUAAAUCUGCGAAUUCUGCUGU it is 0.172; for GGUGGCCACAGCAGAAGCGUUCACGUCGCGGCCCCUGUCAGAUUCUGCUGAAUCUGCGAAUUCUGCUGU it is 0.151.
For GGUGGCCACAGCAGAAGCGUUCACGUCGCGGCCCCUGUCAGAUUCUGUUGAAUCUGCGAAUUCUGCUGU the value was 0.135; for GGUGGCCACAGCAGAAGCGUUCACGUCGCGGCCCCUGUCAGAUUCUGGUGAAUCUGCGAAUUCUGAUGU, 0.0783.
The figure for GGUGGCCACAGCAGAAGCGUUCACGUCGCGGCCCCUGUCAGAUUCUGGUGAAUCAGCGAAUUCUGCUGU is 0.0915; for GGUGGCCACAGCAGAAGCGUUCACGUCGCGGCCCCUGUCAGAUUCUGGUGAAUCGGCGAAUUCUGCUGU it is 0.0975.
Turning to GGGAGCCACAGCAGAAGCGUUCACGUCGCGGCUCCUGUCAGAUUCUGGUGAAUCUGCGAAUUCUGCUGU, the self-cleavage amounted to 0.968.
Consider GGGAGCCACAGCAGAAGCGUUCACGUCGCGGCACCUGUCAGAUUCUGGUGAAUCUGCGAAUUCUGCUGU, for which the self-cleavage was determined as 0.897.
The figure for GGUGGCCACAGCAGAAGCGUUCACGUCGCGGCCCCUGUCAGAUUCUGGUGAAUCUGCGAAGUCUGCUGU is 0.114; for GGUGGCCACAGCAGAAGCGUUCACGUCGGGGCCCCUGUCAGAUUCUGGUGAAUCUGCGAAUUCUGCUGU it is 0.0557.
For the variant GGGAGCCACAGCAGAAGCGUUCACGUCGCGGCCCCUGUCAGAUUCUGGUGAGUCUGCGAAUUCUGCUGU, the self-cleavage came out at 0.864.
Consider GGGAGCCACAGCAGAAGCGUUCACGUCGCGGCCCCUGUCAGAUUCUGGUGACUCUGCGAAUUCUGCUGU, for which the self-cleavage was 0.763.

The values above are taken from the RNAGym collection of RNA variant scans (doi:10.7554/elife.80360).
